This is an account of results in PMC7343221 (Nature structural & molecular biology, 2020).

This series deals with the molecule itself. Put plainly: cryo-EM structure.

B1: N-terminal IST1 R16E/K27E mutant (IST1NTD^R16E/K27E) (domain or fragment, human, UniProt P53990 1-189, looked up)
chain: MLGSGFKAERLRVNLELVINRLKLLEEKKTELAQKARKEIADYLAAGKDERARIRVEHIIREDYLVEAMEILELYCDLLLARFGLIQSMKELDSGLAESVSTLIWAAPRLQSEVAELKIVADQLCAKYSKEYGKLCRTNQIGTVNDRLMHKLSVEAPPKILVERYLIEIAKNYNVPYEPDSVVMAEAPP
As for B1, the binding result was “binds”.
